Key:
[1] = tested on: K4 kissing-loop RNA reporter; experiment: apparent KD of K4 kissing-loop reporter; higher = weaker reporter binding; settings: Eterna round: R107;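 note: bound reporter read as fluorescence of individual clusters on recovered sequencing chips by microscopy, with normalized cluster intensities fitted with a binding model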
Method: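 RNA-MaP round R107: designed RNA switches with theophylline, tryptophan, arginine or FMN aptamers are transcribed on-chip within common flanks. They are titrated with a labelled K4 kissing-loop RNA reporter in RNA-MaP buffer (100 mM Tris pH 7.5, 80 mM KCl, 4 mM MgCl2), without ligand or with the indicated ligand. Median apparent KD per design.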

MS2 coat protein = experiment: apparent KD of MS2 coat protein; designed switch direction (-1 OFF switch, 1 ON switch): -1; higher = weaker reporter binding
Method in brief: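 Three titration conditions were used: no input, 200 uM small-molecule ligand, and an oligonucleotide input. In each, SNAP-549-labelled MS2 coat protein was raised from 0.7 or 1.5 nM, doubling, to 3 µM over designed RNA switches transcribed on Illumina chips by stalled E. coli RNA polymerase. Curve fits of normalised cluster fluorescence gave values whose per-design median over clusters is the apparent KD.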

[2] = input ligand: theophylline 20 uM
[3] = input ligand: tryptophan 2.4 mM
[4] = input ligand: microRNA oligo, concentration not stated
[5] = Eterna round: R95, input ligand: microRNA oligo, concentration not stated

Sequence	apparent KD of K4 kissing-loop reporter ([1]; input ligand: FMN 200 uM) [nM]	apparent KD of K4 kissing-loop reporter ([1]; input ligand: arginine 13.2 mM) [nM]	apparent KD of K4 kissing-loop reporter ([1]; input ligand: none) [nM]	apparent KD of K4 kissing-loop reporter [1, 2] [nM]	apparent KD of K4 kissing-loop reporter [1, 3] [nM]	apparent KD of MS2 coat protein (MS2 coat protein; input ligand: FMN 200 uM) [nM]	apparent KD of MS2 coat protein (MS2 coat protein; [4]) [nM]	apparent KD of MS2 coat protein (MS2 coat protein; input ligand: none) [nM]	apparent KD of MS2 coat protein (MS2 coat protein; [5]) [nM]
ACCGGACAAGAGGUGUCAGUGAUGUUGGCGCGAGGACCGGUACGGCCGCCACUCGAGGAAAGCGGUCACGCCCUGGUAGGACUGG [theeternabot_exclusion_KL_Trp_A_22]	169	106	144	128	251	–	–	–	–
AAGAGGACCAACAUCACUAGUCCUCGAAUACGAGGACCGGUACGGCCGCCACUCGAUAACUUGCAGUGAUGUUGCAAGUAAGAAU [(T)''-(K)'-(T)'-(T1)-(T2)-(K1)-(K2)_Design3]	369	253	307	345	439	–	–	–	–
AUCGUUGUCUGAGGAUAUCGAUUAACUGUAGUGAUGUUACAGAAAAUUCAUAUAAUAUUUUCUAUUCGAGAAGGCAGACUACGUA [JR_ExcFMNB_Sub017]	167	135	144	139	144	–	–	–	–
GGGAUGUAGUGAUGUUAUAUUGGAUGUAGACGAGGACCGGUACGGCCGCCACUCGUGAUGGCUGCUAGCACGUUUCGAUGUUUGC [ExTryptoA.Cs]	410	429	424	433	330	–	–	–	–
GGAUUCGGCACGGCCGCCACUUCCGGUGGCUGGUGUCAUGGUGCGCGUGAGUGAUGUUUAUGUGGGAGGACCGGGUGUUGAGUCC [whbob_Ex_Tryp_B_w44]	1020	433	834	1000	502	–	–	–	–
UGAUAGGACAGAAGGAGCGGGAGUGAUGUUCCCAAAAGGGUAAGGUGUCAAAAGACACCCUCCCAGGUAGGUCGCUGUCCUAUCU	155	191	154	175	148	–	–	–	–
AAGGUUGUGCAUGGGAGUGAUGUUCCCAAGCAGGAUAUCGCUCACGCGAGAAGGGCUUGCACAACCGCUCAAGAAACUUGAGCAA [Omei KL FMN A SS C v6]	129	179	195	200	188	–	–	–	–
GAUCUGAACGAAAGUUCGGAUCAGUCCGAUACCAGUAUGGAUUCAUACCCUUGGCAGCGGUUAUCUGCUAUGGAGUGAUGUUCCU [Theophylline A K4 12]	363	332	410	447	227	–	–	–	–
UUUUAUUAAUACUUCUAGUGAUGUUAGAUACGAGGACCGGUACGGCCGCCACUCGCUUAUUGGUUUAUAUAUUUUUUAUUCUUUA [JR_SSTryptoA_Sub013]	276	349	316	353	263	–	–	–	–
GCCGUAGAUGGAAGGAGCGUGGUUAAUGUAAGUGAUGUUUACGAGGUUAACAAUUAACCGCCACAGGUAGGUCGCCAUCUACGGC	72.8	62.8	77.5	58.6	73.8	–	–	–	–
AUUUAUUCGAGUGAUGUUCGUGUUUUUUCAGAGGAUAUGCGUAAUAGCAGAAGGCUGUUUUAUAUUAUAUUUUGAUUUUUUUAAA [JR_Nu_ExcFMNA_Sub025]	92.2	123	86.1	106	73.5	–	–	–	–
GUAGUGAUGUUACGAAUAUUCCAUCAUAGAGAGGAUAUUGUUCCUUCGAGAAGGUUCUGAGAAUUAAAAUUUAAUAAAAUGAAGG [Exclusion FMN A GF 1]	246	302	277	357	160	–	–	–	–
GAAAGAAAGUAUGAUACCAGACACCCGAGUGAUGUUCGGAACAGUGUGUUGUUCUUUUAAGUCCCUUGGCAGCAUAAAAGAAAAG [whbob_SS_Theo_B_sa86]	135	143	151	171	110	–	–	–	–
CGCCAGUGAUGUUGGCGCAGGUUGCGGGAAGGAGCGCGCGUAAGCGCAGGUAGGUCGCCUGCAGGCCAGUGAUGUUGGCAAUCUG [Same State Arginine A GF 30]	130	110	143	111	116	–	–	–	–
UCGCGUCUGCGAGGAUAUCGGAUUAGAGUGAUGUUCUAUAAACGCCCAGUGAUGUUGGAUGCGAUACGAGAAGGCGCUGGGCGCA [Same State FMN B GF8]	178	280	203	321	167	–	–	–	–
GGGCGUGGCGCGGCCGCCACUGCGCCUGGGUGCUCGCUGAGUGAUGUUCGUCGGCGGUUGGGUGGUAGGACCGGGUGCUGGCCGG [BDazzled - #12 SS Tryptophan B]	773	318	581	595	471	–	–	–	–
UGAUACCAGACGGCCGCCACUCCUGCAAGUCAAAGACUUGCUAAAGGAAUCGUCCAGUGAUGUUGGAGGACCGGGUCUGGUAUCU [TrypBX 18 #SwitchBubble #Palindromic #StaticStem]	1040	745	1160	890	602	–	–	–	–
CGAGUCGGUUCAGAUACCAGCCAAUUAAAGUCGAGUGAUGUUCGACAAUGAACGUCCAAAGGCCCUUGGCAGCUGAAUUGGGAAC [Same State Theophylline B GF 19]	216	107	191	250	122	–	–	–	–
UUCCAGUGAUGUUGGUAUCUGAUAAGGGAAGGAGCGCGGAUUAACGCAGGUAGGUCGCCCAAGUAAUAAAUGUUUAUUAAUUGAU [Default title]	183	193	201	161	188	–	–	–	–
CCCAAGGGCGAACCGGUAUGAUCACCGGAUACCAGAGGCGAAAGCCUCCCUUGGCAGCCGGUUGUAGUGAUGUUACACUGGUUCU	91.4	74.6	88.7	118	87.7	–	–	–	–

Sequence	apparent KD of K4 kissing-loop reporter ([1]; input ligand: FMN 200 uM) [nM]	apparent KD of K4 kissing-loop reporter ([1]; input ligand: arginine 13.2 mM) [nM]	apparent KD of K4 kissing-loop reporter ([1]; input ligand: none) [nM]	apparent KD of K4 kissing-loop reporter [1, 2] [nM]	apparent KD of K4 kissing-loop reporter [1, 3] [nM]	apparent KD of MS2 coat protein (MS2 coat protein; input ligand: FMN 200 uM) [nM]	apparent KD of MS2 coat protein (MS2 coat protein; [4]) [nM]	apparent KD of MS2 coat protein (MS2 coat protein; input ligand: none) [nM]	apparent KD of MS2 coat protein (MS2 coat protein; [5]) [nM]
UAGGAGUGAUGUUCCUUUAGCAGGUAGGAAGGAGCGCCCAUUUGGGCAGGUAGGUCGCCUACUGGCCCUAAGUUAAACCUUAGGC [KL-SSArg-A12]	160	161	146	161	118	–	–	–	–
AAGGUUGUGCAUGGGAGUGAUGUUCCCACGCAGGAUAUCGCUCUCGCGAGAAGGGCGAGCACAACCGCUCAAGAAACUUGAGCAA [Omei KL FMN A SS C v3]	129	320	480	402	388	–	–	–	–
AGCUCAGAGUGACUUGAUAAGAGUCACAAACGAGGACCGGUACGGCCGCCACUCGAAAUAACGAGAGUGAUGUUCUCGCUGAGCA [FiskerMod 5 - Jieux - Same State Tryptophan A]	696	564	980	843	328	–	–	–	–
AAACAUUGGUGCGAUACCAGCUGAUCGGAAACGAUCUUGCUGGAGUGAUGUUCCAAGUAAAGCCCUUGGCAGCGCACCGAUGAAA [MAT - Same State Theophlline B - Mod of Eli - D21]	135	31.7	91.5	72	75.7	–	–	–	–
AAUUUUAAUAAUAAAUAAUAAAUAAAUGAUACCAGUAUUUUUUUUUACCCUUGGCAGCGUAUAUAAGGGCAGUGAUGUUGUCAGA [whbob_SS_Theo_A_w59]	223	144	212	232	164	–	–	–	–
GGAUAGGAUAGAGGAUAUGGGCUAGGCAAGGAUAACUUGUCUAGCAAAUCCAUGAGGAGUGAUGUUCCAGAAGGCUGUCCUAUCG [MatMod 1 - Jieux - Exclusion - FMN B]	733	160	162	148	158	–	–	–	–
AGGGUAAGGCGUUAACAUGACACCUGGGAAGGAGCGCGGUACACCGCAGGUAGGUCGCCCAGUGAUGUUGGGUGAUUGUAUGAGU [KL-XArg-A24]	149	123	136	150	131	–	–	–	–
UCGAAGGAUGGAAGGAGCGCUCGUCAGUCCUGCGAGUGAUGUUCGUGGGUAAAUAGUCGCGAGCAGGUAGGUCGCCAUCUUGAGA [Lageso]	110	96.9	101	152	118	–	–	–	–
GGGAGUAGUGCGGCCGCCACUGUGAAAGAAGAAGAAUAUAGUGAUGUUAUAUAGGAAUAAAAGAAUAGGACCGGGCAUUAGAUUU [SSTRyptB.R]	334	231	134	113	139	–	–	–	–
UCAAGAGAACUUAAAUUUGAUCAACGCUCGCGAGGACCGGUACGGCCGCCACUCGACCGUUAGUGCCUCAUCCAGUGAUGUUGGG [theeternabot_sameState_KL_Trp_A_6]	537	394	500	508	476	–	–	–	–
AAGAUGCGGAUAGGAUAUGGAAAGAAAAGAAAAUUAGAAGGGUUGGUUAAAAUACAUGAGGAUCACCCAUGUGAAUCAUGAGAA [AK ExNG1-2] (Eterna round: R96, puzzle: Exclusion NG 1)	–	–	–	–	–	132	89.8	99.9	–
CAGUACUGAGGAUAUACAUGAGGAUCACCCAUGUCAGAGAUACUAGUGAGGUCGAUUAGUAGAAGGCAGUACUG [Mat X3R4 m30] (Eterna round: R97, puzzle: Exclusion 3)	–	–	–	–	–	621	–	43.5	–
CAGUACUGAGGAUAUACAUGAGGAUCACCCAUGUUCUUCAGCUAGGAUACUAGCAAAGGUAGAAGGCAGUACUG [Mat - Exclusion 3 - Eli Mod - D28] (Eterna round: R97, puzzle: Exclusion 3)	–	–	–	–	–	611	–	30.1	–
GCAAGAAUAGGAUAUACACCAUGCCAGCUUCUAUACAACGCACAUGAGGAUCACCCAUGUAGAAGGGUUCUCUG [Exclusion-2-#12] (Eterna round: R97, puzzle: Exclusion 2)	–	–	–	–	–	225	–	262	–
GGUGGACAUGAGGAUCACCCAUGUGAGGAUAUCGGCUGGCUAGCGGCGGACGGCUGCUCGAGAAGGCGCAUUGU [Exclusion 1 V84] (puzzle: Exclusion 1)	–	–	–	–	–	–	–	–	61.1
UGCAUGCUAGGAUAUACGGGACAUUAGGGUUUGUCGUGUGGACAUGAGGAUCACCCAUGUAGAAGGAGCGUGCU [Mod2 of JL-ex2-2.15 mat747 mod] (puzzle: Exclusion 2)	–	–	–	–	–	–	–	–	43.6
GACCUAUAGGUAGGAUAUCAUUGCGAUUAGCUAUGAGAAGGACCACAUGAGGAUCACCCAUGUCCUCCAAUUAACCGAAAGGUC [Fiskers ExNg1 - 3] (Eterna round: R96, puzzle: Exclusion NG 1)	–	–	–	–	–	44.9	21.9	30.1	–
GCAUCCAAUGUGAGGAUAUACCUCUGGAUACAUAGGUAGAAGGCACAUGAGGAUCACCCAUGUCCUAAGGAUGC [Fiskers BMX 4 - 28] (puzzle: Brourd's mod of Exclusion 4)	–	–	–	–	–	–	–	–	75
GGAGUCUUAGGAUAUACAGGUGUGAACAUCCGACGUUUCCAACAUGAGGAUCACCCAUGUAGAAGGAAGACGAG [Eternabot (Original) Solution 5] (Eterna round: R97, puzzle: Exclusion 2)	–	–	–	–	–	824	–	783	–

Source: the supplement of paper PMC9170038
